Source: patent publication US10799584B2, “Combination therapies using agents that target tumor-associated stroma or tumor cells and alkylating agents” (BIOMED VALLEY DISCOVERIES, INC., priority 2014, dated 2020)

Tests used:
H460 tumors = assay: H460 xenograft model, M830 with gemcitabine, cisplatin or radiation; format: in vivo, nude mice; conditions: endpoint 2000 mm^3 or Day 58; logrank
Text: (§1) The statistical tests were not adjusted for multiple comparisons.
Treatment began on Day 1 in eight groups of nude mice (n=10) with established subcutaneous H460 tumors of 75-126 mm^3. […] The study endpoint was a tumor volume of 2000 mm^3 or the final day, Day 58, whichever came first. […] The median TTE for controls was 15.6 days, establishing a maximum possible TGD of 42.4 days (272%) for the 58-day study.

HCT116 tumor cells = assay: HCT116 colorectal carcinoma xenograft model, TEM8 antibodies; format: in vivo, mice; conditions: HCT116 Colon; no combination partner; M830 IP 3 times per week; start at 60-80 mm^3
Procedure: Tumor cells were cultured in RPMI-1640 medium supplemented with 10% fetal bovine serum, 2 mM glutamine, 100 units/mL penicillin G sodium, 100 μg/mL streptomycin sulfate, and 25 μg/mL gentamicin. The tumor cells were grown in tissue culture flasks in a humidified incubator at 37° C., in an atmosphere of 5% CO2 and 95% air.
2.5×10^6 to 5×10^6 HCT116 tumor cells were injected subcutaneously into the flank of mice. Tumor weights were calculated following surgical removal. Treatment was initiated when tumor volume reached 60-80 mm^3. Dosing volume was 10 mL/kg (0.2 mL/20 g mouse).
TEM8 Ab (hIgG1) doses were 5 and 15 mg/kg, three times per week, for 3 weeks. Bevacizumab was dosed at 5 mg/kg, twice per week, for 3 weeks. FIG. 1B and FIG. 1D show mean tumor growth and percent body weight change for each group, respectively, over the time course of the study.

H460 cells = assay: H460 non-small cell lung carcinoma xenograft model, M830 with bevacizumab or paclitaxel; format: in vivo, athymic nude mice; conditions: for % Tumor Reduction vs. combination partner at Day (#): Day 32
Procedure: Animals were monitored for regression responses.
as §1
Cultured H460 cells were harvested during exponential growth and resuspended in phosphate buffered saline at a concentration of 1×10^8 cells/mL. 1.0×10^7 tumor cells were injected subcutaneously into the flank of athymic nude mice. Animals were euthanized when tumors reached the pre-determined volume endpoint of 2000 mm^3 or on the final day (Day 88), whichever came first.

DLD-1 tumor cells = assay: DLD-1 colorectal adenocarcinoma xenograft model, first study; format: in vivo, mice; conditions: DLD1 Colon, Day 21
Procedure: Tumor weights were calculated following surgical removal. […] Irinotecan was given once per week at 60 mg/kg i.v. and bevacizumab was dosed at 5 mg/kg i.p., three times per week.

[1] = combination partner Bevacizumab

Row | Molecule | outcome (survival) compared to vehicle-treated controls (H460 tumors) | % Tumor Reduction vs. Vehicle at Day 21 (HCT116 tumor cells) [%^] | % Tumor Reduction vs. combination partner at Day (#) (H460 cells; [1]) [%] | % Tumor Reduction vs. Vehicle at Day 21 (H460 cells; combination partner Bevacizumab, M830 IP 3 times per week) [%^] | regression (vs. Vehicle at Day 21) (H460 cells; combination partner Paclitaxel) | % Tumor Reduction vs. combination partner at Day (#) (H460 cells; combination partner Paclitaxel) [%] | % Tumor Reduction vs. combination partner at Day (#) (DLD-1 tumor cells; [1]) [%] | % Tumor Reduction vs. combination partner at Day (#) (DLD-1 tumor cells; combination partner Irinotecan) [%]
1 | N.N.[Cl][Pt][Cl] [Cisplatin, cisplatin] | statistically significant survival benefit | – | – | – | – | – | – | –
2 | Nc1ccn([C@@H]2O[C@H](CO)[C@@H](O)C2(F)F)c(=O)n1 [gemcitabine] | not statistically different | – | – | – | – | – | – | –
3 | M830: TEM8 monoclonal antibody (hIgG1), VH SEQ ID NO:5, VL SEQ ID NO:6 (antibody, V domains shown, TEM830 mAb VH; TEM830 mAb VL) VH: EVQLVESGGGVVQPGRSVRLSCAASGFTFSTYTMHWVRQAPGKGLEWVAIISNDGSNKYYADPVRGRFTISRDNSKNTLYLQMNSLRAEDTAVYYCVRGSSWYRGNWFDPWGQGTLVTVSS VL: DIQMTQSPSSLSASVGDRVTIACRASQTISRYLNWYQQKPGKAPKLLIYAASSLQSGVSSRFSGSGSGTEFTLTISSLQPEDFATYFCQQTYSPPITFGQGTRLEIKR | not statistically different | 39.5 | 58.5 | 94.5 | (−61% | 94 | 48 | 53
